From patent publication US8541373B2, “BChE albumin fusions for the treatment of cocaine abuse” (priority 2009, dated 2013)

Tested on: cocaine
Experiment: Plasma cocaine, benzoylecgonine and ecgonine methyl ester (LC-MS) and cocaine PK after IV cocaine post-AlbuBChE
Assay type: in vivo, cynomolgus monkeys
Conditions: for Ecgonine methyl ester plasma concentration (mean) / Mean benzoylecgonine plasma concentration / Mean cocaine plasma concentration / Mean benzoylecgonine AUC(0-t) / Mean cocaine AUC % Extrap / Mean cocaine AUC(0-t) / Mean cocaine AUC(0-∞) / Mean cocaine C0 / Mean cocaine CI / Mean cocaine Vss / Mean cocaine t½: 5 mg/kg IM
Procedure: Blood was placed into K2EDTA blood collection tubes with esterase inhibitor diisopropylfluorophosphate (DFP). Tubes were inverted several times and placed on wet ice upon collection. Samples were centrifuged at 2-8° C. within 45 minutes of collection. The resultant plasma was recovered and a single 200 μL aliquot of plasma was placed into polypropylene tubes. Plasma samples were frozen over dry ice and stored at −75±15° C.
The following outline describes the LC-MS-based assay employed for the measurement of cocaine in plasma samples. Prior to MS analysis, plasma samples, calibration standards and controls were extracted using supported liquid extraction (SLE-ISOLUTE, Biotage). Twenty-five microliters of samples (25 μL) received 150 μl of 5% Ammonium hydroxide and 25 μl internal standard solution (Cocaine-d3). After mixing and transfer to SLE plate, samples were eluted with methylene chloride and evaporated to dryness. After resuspension in 50 μl of reconstitution solution—5% ACM in 10 mM ammonium acetate in water, 10 μl was injected onto Thermo Hypercarb column at 0.5 ml/min. Mobile phase was biphasic. Mass spectrophotometric detection was performed using Api 4000, APCI positive interface and Multiple Reaction Monitoring (MRM). Plasma concentrations of cocaine, benzoylecgonine and ecgonine methyl ester were determined using this assay.
When the data permits, pharmacokinetic parameter values for cocaine and its metabolites were determined using plasma concentration-times profiles for individual animals at all the study days of cocaine administration. […] Specifically the model for non-compartmental analysis with IV bolus input for cocaine and extravascular input for the metabolites.

[1] = cocaine 1 mg/kg IV 48 hr post-AlbuBChE, 10 min after cocaine
[2] = cocaine 1 mg/kg IV 48 hr post-AlbuBChE, 15 min after cocaine
[3] = cocaine 1 mg/kg IV 48 hr post-AlbuBChE, 20 min after cocaine
[4] = cocaine 1 mg/kg IV 48 hr post-AlbuBChE, 30 min after cocaine
[5] = cocaine 1 mg/kg IV 48 hr post-AlbuBChE, 40 min after cocaine
[6] = cocaine 1 mg/kg IV 48 hr post-AlbuBChE, 60 min after cocaine
[7] = cocaine 1 mg/kg IV 96 hr post-AlbuBChE
[8] = cocaine 1 mg/kg IV 96 hr post-AlbuBChE, 5 min after cocaine
[9] = cocaine 1 mg/kg IV 96 hr post-AlbuBChE, 10 min after cocaine
[10] = cocaine 1 mg/kg IV 96 hr post-AlbuBChE, 15 min after cocaine
[11] = cocaine 1 mg/kg IV 96 hr post-AlbuBChE, 20 min after cocaine
[12] = cocaine 1 mg/kg IV 96 hr post-AlbuBChE, 30 min after cocaine
[13] = cocaine 1 mg/kg IV 96 hr post-AlbuBChE, 40 min after cocaine
[14] = cocaine 1 mg/kg IV 96 hr post-AlbuBChE, 60 min after cocaine
[15] = cocaine 1 mg/kg IV 120 hr post-AlbuBChE
[16] = cocaine 1 mg/kg IV 120 hr post-AlbuBChE, 5 min after cocaine
[17] = cocaine 1 mg/kg IV 120 hr post-AlbuBChE, 10 min after cocaine
[18] = cocaine 1 mg/kg IV 120 hr post-AlbuBChE, 15 min after cocaine
[19] = cocaine 1 mg/kg IV 120 hr post-AlbuBChE, 20 min after cocaine
[20] = cocaine 1 mg/kg IV 120 hr post-AlbuBChE, 30 min after cocaine
[21] = cocaine 1 mg/kg IV 120 hr post-AlbuBChE, 40 min after cocaine
[22] = cocaine 1 mg/kg IV 120 hr post-AlbuBChE, 60 min after cocaine
[23] = cocaine 1 mg/kg IV 240 hr post-AlbuBChE
[24] = cocaine 1 mg/kg IV 240 hr post-AlbuBChE, 5 min after cocaine
[25] = cocaine 1 mg/kg IV 240 hr post-AlbuBChE, 10 min after cocaine
[26] = cocaine 1 mg/kg IV 240 hr post-AlbuBChE, 15 min after cocaine
[27] = cocaine 1 mg/kg IV 240 hr post-AlbuBChE, 20 min after cocaine
[28] = cocaine 1 mg/kg IV 240 hr post-AlbuBChE, 30 min after cocaine
[29] = cocaine 1 mg/kg IV 240 hr post-AlbuBChE, 40 min after cocaine
[30] = cocaine 1 mg/kg IV 240 hr post-AlbuBChE, 60 min after cocaine

Substance: AlbuBChE
- Ecgonine methyl ester plasma concentration (mean) [1]: 68.9 ng/mL
- Mean benzoylecgonine plasma concentration [1]: 21.0 ng/mL
- Mean cocaine plasma concentration [1]: 89.9 ng/mL
- Ecgonine methyl ester plasma concentration (mean) [2]: 102 ng/mL
- Mean benzoylecgonine plasma concentration [2]: 24.4 ng/mL
- Mean cocaine plasma concentration [2]: 82.7 ng/mL
- Ecgonine methyl ester plasma concentration (mean) [3]: 107 ng/mL
- Mean benzoylecgonine plasma concentration [3]: 23.7 ng/mL
- Mean cocaine plasma concentration [3]: 49.5 ng/mL
- Ecgonine methyl ester plasma concentration (mean) [4]: 108 ng/mL
- Mean benzoylecgonine plasma concentration [4]: 25.9 ng/mL
- Mean cocaine plasma concentration [4]: 36.7 ng/mL
- Ecgonine methyl ester plasma concentration (mean) [5]: 106 ng/mL
- Mean benzoylecgonine plasma concentration [5]: 25.5 ng/mL
- Mean cocaine plasma concentration [5]: 18.9 ng/mL
- Ecgonine methyl ester plasma concentration (mean) [6]: 108 ng/mL
- Mean benzoylecgonine plasma concentration [6]: 24.4 ng/mL
- Mean cocaine plasma concentration [6]: 5.74 ng/mL
- Mean benzoylecgonine AUC(0-t) [7]: 3222 ng·min/mL
- Mean cocaine AUC % Extrap [7]: 14.2%
- Mean cocaine AUC(0-t) [7]: 6624 ng·min/mL
- Mean cocaine AUC(0-∞) [7]: 7729 ng·min/mL
- Mean cocaine C0 [7]: 190 ng/mL
- Mean cocaine CI [7]: 129 mL/min/kg
- Mean cocaine Vss [7]: 4.111 L/kg
- Mean cocaine t½ [7]: 21.3 min
- Ecgonine methyl ester plasma concentration (mean) [8]: 100 ng/mL
- Mean benzoylecgonine plasma concentration [8]: 44.2 ng/mL
- Mean cocaine plasma concentration [8]: 176 ng/mL
- Ecgonine methyl ester plasma concentration (mean) [9]: 60.9 ng/mL
- Mean benzoylecgonine plasma concentration [9]: 43.5 ng/mL
- Mean cocaine plasma concentration [9]: 166 ng/mL
- Ecgonine methyl ester plasma concentration (mean) [10]: 82.2 ng/mL
- Mean benzoylecgonine plasma concentration [10]: 49.7 ng/mL
- Mean cocaine plasma concentration [10]: 174 ng/mL
- Ecgonine methyl ester plasma concentration (mean) [11]: 104 ng/mL
- Mean benzoylecgonine plasma concentration [11]: 51.1 ng/mL
- Mean cocaine plasma concentration [11]: 136 ng/mL
- Ecgonine methyl ester plasma concentration (mean) [12]: 111 ng/mL
- Mean benzoylecgonine plasma concentration [12]: 56.1 ng/mL
- Mean cocaine plasma concentration [12]: 99.0 ng/mL
- Ecgonine methyl ester plasma concentration (mean) [13]: 126 ng/mL
- Mean benzoylecgonine plasma concentration [13]: 57.7 ng/mL
- Mean cocaine plasma concentration [13]: 80.6 ng/mL
- Ecgonine methyl ester plasma concentration (mean) [14]: 127 ng/mL
- Mean benzoylecgonine plasma concentration [14]: 60.5 ng/mL
- Mean cocaine plasma concentration [14]: 35.2 ng/mL
- Mean benzoylecgonine AUC(0-t) [15]: 3624 ng·min/mL
- Mean cocaine AUC % Extrap [15]: 14.5%
- Mean cocaine AUC(0-t) [15]: 9378 ng·min/mL
- Mean cocaine AUC(0-∞) [15]: 11046 ng·min/mL
- Mean cocaine C0 [15]: 411 ng/mL
- Mean cocaine CI [15]: 93.0 mL/min/kg
- Mean cocaine Vss [15]: 2.857 L/kg
- Mean cocaine t½ [15]: 22.3 min
- Ecgonine methyl ester plasma concentration (mean) [16]: 45.5 ng/mL
- Mean benzoylecgonine plasma concentration [16]: 44.6 ng/mL
- Mean cocaine plasma concentration [16]: 298 ng/mL
- Ecgonine methyl ester plasma concentration (mean) [17]: 46.0 ng/mL
- Mean benzoylecgonine plasma concentration [17]: 47.5 ng/mL
- Mean cocaine plasma concentration [17]: 217 ng/mL
- Ecgonine methyl ester plasma concentration (mean) [18]: 96.5 ng/mL
- Mean benzoylecgonine plasma concentration [18]: 50.3 ng/mL
- Mean cocaine plasma concentration [18]: 216 ng/mL
- Ecgonine methyl ester plasma concentration (mean) [19]: 60.1 ng/mL
- Mean benzoylecgonine plasma concentration [19]: 57.3 ng/mL
- Mean cocaine plasma concentration [19]: 161 ng/mL
- Ecgonine methyl ester plasma concentration (mean) [20]: 79.9 ng/mL
- Mean benzoylecgonine plasma concentration [20]: 63.6 ng/mL
- Mean cocaine plasma concentration [20]: 139 ng/mL
- Ecgonine methyl ester plasma concentration (mean) [21]: 122 ng/mL
- Mean benzoylecgonine plasma concentration [21]: 69.5 ng/mL
- Mean cocaine plasma concentration [21]: 113 ng/mL
- Ecgonine methyl ester plasma concentration (mean) [22]: 187 ng/mL
- Mean benzoylecgonine plasma concentration [22]: 69.2 ng/mL
- Mean cocaine plasma concentration [22]: 49.5 ng/mL
- Mean benzoylecgonine AUC(0-t) [23]: 5088 ng·min/mL
- Mean cocaine AUC % Extrap [23]: 29.2%
- Mean cocaine AUC(0-t) [23]: 12952 ng·min/mL
- Mean cocaine AUC(0-∞) [23]: 18578 ng·min/mL
- Mean cocaine C0 [23]: 424 ng/mL
- Mean cocaine CI [23]: 55.6 mL/min/kg
- Mean cocaine Vss [23]: 2.637 L/kg
- Mean cocaine t½ [23]: 33.8 min
- Ecgonine methyl ester plasma concentration (mean) [24]: 127 ng/mL
- Mean benzoylecgonine plasma concentration [24]: 44.9 ng/mL
- Mean cocaine plasma concentration [24]: 346 ng/mL
- Ecgonine methyl ester plasma concentration (mean) [25]: 26.1 ng/mL
- Mean benzoylecgonine plasma concentration [25]: 56.4 ng/mL
- Mean cocaine plasma concentration [25]: 283 ng/mL
- Ecgonine methyl ester plasma concentration (mean) [26]: 30.7 ng/mL
- Mean benzoylecgonine plasma concentration [26]: 71.9 ng/mL
- Mean cocaine plasma concentration [26]: 283 ng/mL
- Ecgonine methyl ester plasma concentration (mean) [27]: 35.1 ng/mL
- Mean benzoylecgonine plasma concentration [27]: 83.4 ng/mL
- Mean cocaine plasma concentration [27]: 226 ng/mL
- Ecgonine methyl ester plasma concentration (mean) [28]: 49.6 ng/mL
- Mean benzoylecgonine plasma concentration [28]: 88.4 ng/mL
- Mean cocaine plasma concentration [28]: 211 ng/mL
- Ecgonine methyl ester plasma concentration (mean) [29]: 53.1 ng/mL
- Mean benzoylecgonine plasma concentration [29]: 101 ng/mL
- Mean cocaine plasma concentration [29]: 161 ng/mL
- Ecgonine methyl ester plasma concentration (mean) [30]: 58.0 ng/mL
- Mean benzoylecgonine plasma concentration [30]: 108 ng/mL
- Mean cocaine plasma concentration [30]: 111 ng/mL
- AlbuBChE activity (cocaine concentrations vs Day 1 control) (240 hr post-AlbuBChE administration of 0.2, 1 or 5 mg/kg): not active
